Data set [1] concerns the molecule itself. Put plainly: crystal structure; Sema5A_(TSR3-4), four crystal forms (apo, nitrate, sulfate, sucrose octasulfate), sitting drop at 20 °C, 1.56-2.72 Å.
Data set [2] deals with the molecule itself. Put plainly: mass photometry; Sema5A_(sema-TSR1-7) alone, 100 nM (half of it at measurement), 100 mM NaCl.

B1: human Semaphorin-5A TSR3-4, Sema5A_(TSR3-4) (residues 652P-765T) (domain or fragment, UniProt Q13591 652-765, looked up)
chain: PHMFWTGWGPWERCTAQCGGGIQARRRICENGPDCAGCNVEYQSCNTNPCPELKKTTPWTPWTPVNISDNGGHYEQRFRYTCKARLADPNLLEVGRQRIEMRYCSSDGTSGCST
modifications: C-mannosyl tryptophan at W656 and W659; N-glycans reduced to single residues by EndoF1 (crystals)
notes: Semaphorin-5A, human, UniProtKB Q13591, residues 652P-765T (thrombospondin type-1 repeats 3 and 4); The tag was cleaved by HRV 3C protease for crystallization; Inter-protomer disulfides C689-C689' and C733-C733'; source: HEK293T, transfected (with kifunensine for crystallization), purified (Ni-NTA, 3C cleavage, SEC); not shown: 3C-Avi-His6, C-terminal, cleaved
Turning to B1, the stoichiometry N (in general, a count of units in the complex or per binding partner) in data set [1] amounted to 2.

B2: human Semaphorin-5A ectodomain Sema5A_(sema-TSR1-7) (residues 23E-944S) (domain or fragment, UniProt Q13591 23-944, looked up)
chain: EAQGTTQCQRTEHPVISYKEIGPWLREFRAKNAVDFSQLTFDPGQKELVVGARNYLFRLQLEDLSLIQAVEWECDEATKKACYSKGKSKEECQNYIRVLLVGGDRLFTCGTNAFTPVCTNRSLSNLTEIHDQISGMARCPYSPQHNSTALLTAGGELYAATAMDFPGRDPAIYRSLGILPPLRTAQYNSKWLNEPNFVSSYDIGNFTYFFFRENAVEHDCGKTVFSRAARVCKNDIGGRFLLEDTWTTFMKARLNCSRPGEVPFYYNELQSTFFLPELDLIYGIFTTNVNSIAASAVCVFNLSAIAQAFSGPFKYQENSRSAWLPYPNPNPHFQCGTVDQGLYVNLTERNLQDAQKFILMHEVVQPVTTVPSFMEDNSRFSHVAVDVVQGREALVHIIYLATDYGTIKKVRVPLNQTSSSCLLEEIELFPERRREPIRSLQILHSQSVLFVGLREHVVKIPLKRCQFYRTRSTCIGAQDPYCGWDVVMKKCTSLEESLSMTQWEQSISACPTRNLTVDGHFGVWSPWTPCTHTDGSAVGSCLCRTRSCDSPAPQCGGWQCEGPGMEIANCSRNGGWTPWTSWSPCSTTCGIGFQVRQRSCSNPTPRHGGRVCVGQNREERYCNEHLLCPPHMFWTGWGPWERCTAQCGGGIQARRRICENGPDCAGCNVEYQSCNTNPCPELKKTTPWTPWTPVNISDNGGHYEQRFRYTCKARLADPNLLEVGRQRIEMRYCSSDGTSGCSTDGLSGDFLRAGRYSAHTVNGAWSAWTSWSQCSRDCSRGIRNRKRVCNNPEPKYGGMPCLGPSLEYQECNILPCPVDGVWSCWSPWTKCSATCGGGHYMRTRSCSNPAPAYGGDICLGLHTEEALCNTQPCPESWSEWSDWSECEASGVQVRARQCILLFPMGSQCSGNTTESRPCVFDS
notes: Semaphorin-5A, human, UniProtKB Q13591, residues 23E-944S (sema, PSI and TSR1-7 domains); Glycosylated (11 predicted N-glycan sites); also called full-length ectodomain human Sema5A; Sema5A ectodomain; source: HEK293T, transfected, conditioned medium; purified (Ni-NTA, SEC); not shown: His6, C-terminal, kept
For the protein B2, the “stoichiometry N” value in data set [2] is 2.
